T1: synthetic stem helix peptide spanning residues 1149–1167 (SARS-CoV-2, UniProt P0DTC2)
T1 chain: KEELDKYFKNHTSPDVDLG

B1: CV3-25 IgG (antibody, V domains shown)
VH: QVQLVESGAEVKKPGESLKISCKGSGYTFTRYWIGWVRQMPGKGLEWMGIIYPGDSDTRYSPSFQGHVTISADKSISTAYLQWNSLKASDTAMYYCARLPQYCSNGVCQRWFDPWGQGTLVTVSS
VL: EIVLTQSPSSVSASVGDRVTITCRASQGISSWLAWYQQKPGKAPKLLIYAASSLQSGVPSRFSGSGSGTDFTLTISSLQPEDFATYYCQQGNSFPYTFGQGTNLEIK
notes: also called CV3-25 mAb; source: 293 cells, purified (protein A resin); copies: 2 + 2
B2: CV3-25 Fab (Fab, V domains shown)
VH: B1 VH
VL: B1 VL
notes: also called monovalent Fab

Tests used:
Settings in all cases: both partners purified
[1] = target: T2, HCoV-OC43 S-2P-T4f-3C-His8-Strep2x2 (stabilized spike ectodomain) (HCoV-OC43, strain , UniProt P36334, stabilised); test: BLI
T2 construct: also called HCoV-OC43-S2P.his; stabilized spike ectodomain from HCoV-OC43; source: 293E cells, purified (Ni-NTA, SEC on superose 6)

[2] = target: T3, HCoV-HKU1 S-2P-T4f-3C-His8-Strep2x2 (stabilized spike ectodomain) (HCoV-HKU1, isolate  (isolate …, UniProt Q0ZME7, stabilised)); test: BLI
T3 construct: also called HCoV-HKU1-S2P.his; stabilized spike ectodomain from HCoV-HKU1; source: 293E cells, purified (Ni-NTA, SEC on superose 6)

[3] = target: T1, synthetic stem helix peptide spanning …; test: crystal structure

Binder	binding result [1]	binding result [2]	binding result [3]
B1	binds	binds	
B2			binds
